Results from the nanobody polyreactivity screen of Harvey et al. (2022).

Test: yeast display, Sf9 membrane polyspecificity reagent, FACS + sequencing; frameworks hold sequencing errors
How it was run: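 Galactose induction of a Saccharomyces cerevisiae BJ5465 synthetic nanobody display library ran 36–48 hours. The cells were then stained for 1 hour at 4 °C with 10% biotinylated, detergent-solubilized Sf9 membrane reagent, pulled down on streptavidin microbeads and FACS-sorted into low and high (top ~1%) gates on expression and reagent-binding fluorescence. Labels for polyreactivity follow the gate of origin.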

Sequence	polyreactivity (PSR sort gate)
QVQLVESGGGLVQAGGSLRLSCAASGRIFGPYAMGWYRQAPGKERELVAAITWSSGITYYADSVKGRFTISRDNAKNTVYLQMNSLKPEDTAVYYCAADSRLPYYRIMEYWGQGTQVTVSS	low polyreactivity
QVQLVDSGGGIVQAGGSLRLRCAASGFTFDFYAMGWYRQAPGKERELVADISSSDGSTYADSVKGRFTISRDNAKNTVYLQMNSLNPEDTAVYYCAADYDNQYDFSLDDEYWGQVTQVTVSS	low polyreactivity
QVQLVESGGGLVQAGGSLRLSCAASGRTFWYYAMGWYRQAPGNERELVATISYRGGSTYYADSVKGRFTISRDNAKNTVYLQMNSLKPEDPAVYYSAAKQWWGGRPKVDYWGQGTQVTVSS	high polyreactivity
QVQLVESGGGLVQAGCSLRLICAASALTFYHKAMGWYRPAPVKERELVAPISSSGDSTYSADSVKGRFTISHDNGKNTVYLQMNSLKPEYTAVYYCAADLGYYNARWYEYWGQGTQVTVSS	high polyreactivity
QVQLVESGVGLVQAGGSLRLSCAASGFTFGDNAMGWYRQAPGKERELVADITSSGSTNYADSVKGRFTISRDNAKNTVYLQMNSLKPEDTAVYYCNAVDSVDAPVYKDLGSEYDSWGQGTQVTVSS	low polyreactivity
QVQLVESGVGLVQAGGSLRLSCAASGRIFAHNAMGWYRQAPGKERELVAAISTGGSTNYADSVKGRFTISRDNAKNTVYLQMNSLKPEDTAVYYCARDAYLPRIADGDGRYELVDYWGQGTQVTVSS	low polyreactivity
QVQLVESGGGLVQAGGSLRLSCAASGSTFHYYARGWYRQAPGKERELVAAISQSGSGTYYADSVKGRFTISRDYAKNTVYLQMNSLKPEDTAVYYCAKDITGLSRYRRDYWGQGTQVTVSS	low polyreactivity
QVHLVESGGALVQAGRSLRLSCAASGSTFTINVKGWYRQAPGKERELVAAINGGGRTNYADSVKGRFTISRDNAKNTVYLLMNSLKPEDTAVYYCAADGLSNVRQMDYWGQGTQVTVSS	low polyreactivity
QVQLVESGGGLVQAGGSLRLSCAASGRTFGYTMGWYRQAPGKERELVAAITRSVTTYYADSVKGRFTISRDNAKNTVYLQMNSLKPEDTAVYYCAARPKYPYGRFGYYWGQGTQVTVSS	high polyreactivity
QVQLVESGGGLVQAGGSLRLSCAASGFIFTQNAMGWYRQAPGKERELVAVIRWNGGSTYYADSVKGRFTISRDNAKNTVYLQMNSLKPEDTEVYYCAAEFLWIVDYWGQGTQVTVSS	low polyreactivity
QVQLVESGGGLVQAGGSLRLSCAASGSTFVGYAMGWYRQAPGKERELVAAITTDGGSTYYADSVKVRFTISRDNAKNTVYLQMNSLKPEDTAVYYCAADHRVYPRDDWDSPDEFGYWGQGTQVTVSS	low polyreactivity
QVQLVESGGGLVQAGGSLRLSCAASGSNFFVYAMGWYRQAPGKERELVASIRWRGSSTYYADSVKGRFTISRDNAKNPVYLQMNSLKPEDTAVYDCAATSYNGYGYWGQGTQVTVSS	high polyreactivity
QVQLVESGGGLVQAGGSLRLSCAASGGIFSENALGWYRQAPGKERELVAVITTSGGSTYYADSVKGRFTISRDNAKNTVYLQMNSLKPEDTAVYYCAADVLSWEYDYWGQGTQVTVSS	low polyreactivity
QVQLVESGGGLVQAGGSLRLSCAASGITFQRYAMGWYRQAPGKERELVAAISTNGGTTYYADSVKGRFTISRDNAKNTVYLQMNSLKPEDTAVYYCNAESGYVYYFRYNYLGQGTQVTVSS	high polyreactivity
HVQLVESGVGLVQAGGSLRLSCEASGFIFIRYAMGWYRQAPGQERELVASISSGGSTYYADSVKGRFTISRDNAKNTVYFQMNSLKPEDTAVFYCAAVFSKGLEGDYWGQGTEVTVSS	high polyreactivity
QVQLVESGGGLVQAGGSLRLSCAASGFIIQYYAMGWYRQAPGKERELVAVIRSGGSTYYADSVKGRFTISRDNAKNTVFFQMNSLKPEDTAVYYCIARRTYLDRYNYWGQGTQVTVSS	high polyreactivity
QVQLVESGGGLVQAGGSLRLSCAASGNTFNYNAMGWYRQAPGKERELVAAITSSGGSTYYADSVKGRFTISRDYAKNTVYLQMNSLKPDDTAVYYCAADLWQDSYSYWFDYWGQGTQVTVSS	high polyreactivity
QVQLVESGGGLVQAGGRLRLSCAASGNIFYPNAMGWYRQAPGKERELVAAISSSGGSTYYADSVKGRFTISRDNAKNTVYLQMNSLKPEDTAVYYCAKDRSYAYYWWPYPTGYDYWGQGTQVTVSS	low polyreactivity
QVQLVESGGGLVQAGGSLRLSCAASGSTFRKYAMGWYRQAPGKERELVAAISRGGTSTYYADSVKGRFTISRDNAKNTVYLQMNSLKPEDTAVYYCRYFRYSYGTKYDYWGQGTQVTVSS	high polyreactivity
QVQHVESGGGLVQAGGSLRLSCAASGLTLKRNAMGWYRQAPGKERELVAAISGRGGSTYYADSVKGRFTISRDNAKNTVYLQMNSLKPEDTAVYYCAATVQYSPIYDYWGQGTQVTVSS	high polyreactivity
QVQLVESGGGLVQAGGSLRLSCAASGRIFVKNAMGWYIQAPGKERELVAAISASGGSTYYADSVKGRFTISRDYSKNTVYLQMNSLKPEYTAVYYCARVLRRRYLSEFDYWGQGTQVTVSS	high polyreactivity
QVQIVESGGGLVQAGGSLRLSSAASGNIFVYYAMGGYRQAPGKERELVAALTSDVSTYYADSVKGRFTISRDNAKNTVYLQMNSLKPEDTAVYYCNKVTPGRYYYSVTTGDYWGQGTKVTVSS	low polyreactivity

Sequence	polyreactivity (PSR sort gate)
QVQLVESGGGLVQAGGSLRLSCAASGFIFRRNAMGWYRQAPGKERELVAAISRTGGSTYYADCVKGRFTISRDNAKNTDYLQMNSLKPEDTAVYYCARYGLVYALGYWGQGTQVTVSS	high polyreactivity
QVQLVESGGGLVQAGGSLRLSCAASGRTFTRYTSGSYRPAPGKERELVAAIRYSGGSTYYADSVKGRFTISGDNAKNTVYLQMNSLKPEDTAVYYCAARSYYYGFLYRYDYWGQGTQVTVSS	low polyreactivity
QVQLVESGGGLVQAGGSLRLSCAASGTIFRGNAMGWYRQAPGTERELVAAINKSGGSTYYADSVKGRFTISRDNAKNTVYLQMNSLKPEDTAVYYCAAVYKRLQPYGYWGQGTQVTVSS	high polyreactivity
QVQLVESGGGLVQAGGSLRLSCAASGYSFYYNAMGWYRQAPGKERELVAAISYTGGSTYYADSVKGRFTISRDNAKNTVYLQMNSLKPEDTAVYYCAAEYYTYVSDNYQHYGYWGQGTQVTVSS	low polyreactivity
QVQLVESCGGIDQAGGSLRLTCAATGRIFNSYPMGWYRQAPGKERELVAAISRNGGITYYADSVKARFTISRDNAKITVYLQMNILKQEDTAVYYCNADSSRRLYSSEYWGEGTQVTVSS	high polyreactivity
QVQLVESGGGLVQAGGSLRLSCAASGFIFNIYGMGWYRQAPGKERELVAAISRGGSTYYADSVKGRFTISRDNAKNTGYLQMNSLTPEDTAVYYCAAVGYTLEYEYWGQGTQVTVSS	low polyreactivity
QVQLVESGGGLVQAGGSLRLSCAASGRIFLRNAMGWYRQEPGKERELVASIDRSGGSTYYADSVKGRFTISRDNAKNTVFLQMNSLKPEDTAVYYCAAAYWYLYYYWGQGTQVTVSS	low polyreactivity
QVQLQESGGGLVQAGGSLRLSCAASGSIFHLHIMCWYRQAPGKERESVAAISYGTSTYYADSVKGRFTICRDNAKNTVYLKMNSPKPDDTAVYYCAALFLVSKHHHYWGEGTQVTVSS	low polyreactivity
QVQLVESGGGLVQAGGSLRLSCAASGIIFVYYTLGWYRQAPGKERELVAAITSGGSTYYADSVKGRFTISRDNAKNTVYLQMNSLKPEDTAVYYCAARTYRQPYYILDYYWGQGTQVTVSS	high polyreactivity
QVQLVESGGGLVQPGGSLRLSCAASGIISFYNAMGWYRPAPGKERELVAAITWSVGSTYYADSVKGRFTISRDNAKNTVYLQMNSLKPEDTAVYYCNVSPGFWRSIPLYYNLRYGYWGQGTQVTVSS	low polyreactivity
QVQLVESGGGLVQAGGSLRLSCAASGFTFWTYPMGWYIQAPGKERELVAAIDSGGSTYYADSVKGRFTISRDNAKNTVYLQMNSLKPEDTAVYYCNAGPSVTSGYDYDYRGQGTQVTVSS	low polyreactivity
QVQHVESGGGLVQAGGSLRLRCAASGFTFRRYALGWYRQAPGKERELVAAISGSGGSTYYADSVKGRFTISRDKAKNTVYLQMNSLKPEDTAVYYCNALLRAIAEYDYWGQGTQVTVSS	high polyreactivity
QVQLVESGGGLVQAGGSLRLSCAASGSIFSDYALGWYRQAPGKERELVAAITQSGGSTYADSVKGRFTISRDNAKNTVYLQMNSLIPEDTAVYYCAADEVPGFGYPPYPWFDYWGQGTQVTVSS	low polyreactivity
QVQLVESGGGLVQAGGSLRLSCAASGINFQNYAMGLYRQAPGKEREFVASISFSGASTYYADSVKGRFTISRDKAKNTVYLQMNSLKPDDTAVYYCAARYLYGPKYYYWGQGTQVTVSS	high polyreactivity
QIQLVESGGGFVQAGGSLRLSCAASGFTFHYYAMGWYSQAPGKERELGAAISWSSGRTYYADSVKGRFTISRDNAQNTVYLQMNSLKPEDTAVYSCAASSYNRGDYWGQGTQVTVSS	low polyreactivity
QVQLVESGGGLVQAGGSLRLSCAASGFTFGNAMGWYRQAPGKERELVAAITVNGGTTNYADSVKGRFTISRDNAKNTVYLQMNSLKPEDTAVYYCNVDTSYGAAGDYWGQGTQVTVSS	low polyreactivity
QVQLVESVGGLVQAGGSLRLSCAASGSIIFTNVMGWYRQAPGKDREFVAAITGGGGSTYYADSVKGRFTISRDNAKNTVYLQMNSLKPEDTAVYYCATKAKPRSGYNYWGQGTQVTVSS	low polyreactivity
QVQLVESGGGLDQAVGSLRLSSAASGTTFDKNDMGLYRQAPAKERELVAAISGGSTNYADSVKGRFTISRDNAKNTVYLQMNSLKPEDTAVYYCAARPHAHSDYWGQGTQVTVSS	low polyreactivity
QVQLVESGGGVVQAGGSLRLSCAASGRIFVVYVMGWYRQAPGKEREFVAAITWGGGNTYYADSVKGRFTISRDNAKNTVYLQMNSLKPEDTAVYYCAAADGDDTTFRYDYWGQGTQVTVSS	low polyreactivity
QVLLQESGGGLVQAGGSLRLGCAASGTISPAYYMGRYHHAPGKEREFVAAITYGTNTYYADSVKGRFTISRDNAKNTVNLQMNSLKPADTAVYYCSATAGYNGAHDYWGQGTQVTVSS	low polyreactivity
QVQLVESGGGLVQAGGSLSLSCADSGSTFPKYAMGWYRQAPGKERELVASISVTTGSTYYADTVKGRFTISRDNAKNTVYLHMNSLKPVDTAVYYCAKRTYSRKLRGAYNYWGQGTQVTVSS	high polyreactivity
